The supplement of paper PMC12042874
± gives the uncertainty stated by the source.

Assay: amyloid nucleation score (Sup35N fusion, yeast selection) (log enrichment); library NNK3; higher = more nucleation; inactive = no reads after selection
In short: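 The nucleation score is a DiMSum log enrichment of output over input reads, centred on the mode score of non-aggregating sequences. Sequences under 100 input reads were excluded, and reads came from Illumina sequencing of plasmid inserts. Psi-negative yeast expressing Sup35N fused to peptides of 20 random codons were induced with 100 μM copper sulfate for 24 hours and grown 7 days at 30°C on medium lacking adenine and uracil. Random libraries had three technical output replicates.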

Row | Substance | amyloid nucleation score
1 | KPLMWESSDNPEGWQLSLLG | -0.79 ± 1.4
2 | HGIDKGLDVDETR | inactive
3 | HQFFVVNSRDWLGHSSKFRF | 0.814 ± 0.12
4 | GYSSTRNLAA | inactive
5 | YILMDFSYADLSFVLEIFFA | 0.09 ± 0.64
6 | DPKTSYNADLAIGSCLLIDF | inactive
7 | FYGLYFYHSVH | inactive
8 | GYNVKGNP | inactive
9 | DSHFKVYVPRQLREAREPVK | inactive
10 | IKRGRTVQKVFCMWVVSYPR | inactive
11 | TVEQYWRNEREWF | inactive
12 | LYNGELNLMVRSNAEFMGSG | inactive
13 | IIGPGYFFYLKLYA | 0.549 ± 0.27
14 | YLGVSILVSSYYWVRVGTGR | inactive
15 | SYCTYCRKAVGCHVHDEVGG | inactive
16 | ASTQRMYMSLLVDGWVTIRL | inactive
17 | GPYNCFVH | inactive
18 | YDVTSDR | inactive
19 | CEWNERRRDGSSRNFDLLSQ | -0.045 ± 1.1
20 | IWETVRIFCFINHAINCGVP | 2.35 ± 0.079
21 | LFGTRIYGLFLCSLNLCRRV | inactive
22 | TFRLKGALRKVVW | inactive
23 | CSGQVQ | inactive

Row | Substance | amyloid nucleation score
24 | RLSRWRRSNFSE | inactive
25 | LDVLKMGIVV | inactive
26 | RVIIRNANSILGTPQSDHNQ | 0.706 ± 0.18
27 | FCKMVFLGTAVRCVVKLQSV | inactive
28 | NLVACIVNTCYL | 1.52 ± 0.14
29 | QFAKIPIALTSVYRIKDGLY | inactive
30 | DTRGTARKPKSLSTRLEIRV | inactive
31 | SGLSNRGCCIMSY | inactive
32 | NLYMLNTQGMSVLISCVGRI | 0.996 ± 0.091
33 | KVNGYSLMLLDPVGGLTNT | inactive
34 | GERWVQKIQ | inactive
35 | LTLSMKFTWYFYVSIYSGQG | inactive
36 | YRWQLRKKALFFFGKFSVHY | inactive
37 | PRIQKSWVGAM | inactive
38 | NLESTNTMSYIWYRADSKCG | inactive
39 | LKYSDSSDI | 0.235 ± 0.26
40 | CAESFHIAASG | inactive
41 | QYRGCG | inactive
42 | SCGGCLFPDHKCCTSYARWV | inactive
43 | VLVSVGLVLWACCLRLQ | inactive
44 | WFNQHTECHGRSVHLAAHNV | -0.14 ± 1
45 | LVVWRIRWRDKGSL | inactive
46 | MGKTMILKLLY | inactive

Row | Substance | amyloid nucleation score
47 | IPCMG | inactive
48 | SVEGQHYKLAVTFVDLYNSI | inactive
49 | QRMMHFVLCVGFDRGIVPVK | inactive
50 | HGHDNVEDTCLRFSPAGLST | inactive
51 | YNLSRHQRTSTSLRCKGQSF | 0.241 ± 0.44
52 | GFYVCPMGCNEYRVLICSDS | inactive
53 | SSGHAGGYINYSCTFSAYRM | 0.786 ± 0.19
54 | RIDSMRRMGYLNSIFGCFV | inactive
55 | LVYTA | inactive
56 | CTDRRVRWGYGFKFRFGHGD | inactive
57 | FTFNSWSSWWNTSSFLIKGQ | inactive
58 | RFATGCDYLLRRW | inactive
59 | CYMADNVLVGFTFVGIQEMK | inactive
60 | HPSQIKKVAFHYVRICSKWL | inactive
61 | CTLQYWGKIIPNERSRSRIV | inactive
62 | FRFYLCDDFMCNVLHYQPRN | 3.19 ± 0.073
63 | RLCLFLDPIY | inactive
64 | YGPSLQNSWDPFPRASSPVI | inactive
65 | LYIPMQLQCCAIMEGYAILF | 1.6 ± 0.078
66 | HRLCSHYVFTGCPSNMRQCF | 0.083 ± 0.28
67 | NEFVSYNLLVTGGWSRCWYF | inactive
68 | FVSVLACSDKLGK | inactive
69 | RCRKHALLFHRCILGYSVLP | inactive

Row | Substance | amyloid nucleation score
70 | SFYFWSDAYACIKARRM | inactive
71 | SYEGMTREPLYMVYMRGSTD | 1.16 ± 0.16
72 | ISTFVLNDAMLRRWET | inactive
73 | VLLGAVYKQNLANQYYSNLY | inactive
74 | YYLSFVKKCNDSEVIWTKSV | inactive
75 | KMMARTSNVVEVLCWRTDVA | 0.015 ± 0.64
76 | FLRKGYFNSTSFTDALGGNL | -1.26 ± 1.8
77 | RAYMVGCYDCSSYLDPFSYS | inactive
78 | IDLRVTRNIFQSATLLMFFW | inactive
79 | RQTCFIMVSCYPVKNGNSEI | 1.48 ± 0.15
80 | RYHNFLYGLGNPMG | inactive
81 | STSNFYLWGKPNVLAGMR | inactive
82 | NTSLRYIKLFSVNDALPLP | inactive
83 | YFRQFSVYYLFFNLMYILHA | inactive
84 | HSLVVPIPSPILRVLKE | inactive
85 | YVRDLGSWMT | inactive
86 | WFYYVM | inactive
87 | NTQNLNRVVCLGL | inactive
88 | RNISDMEPS | inactive
89 | KVLMST | -0.443 ± 1.4
90 | MNYRFVISMLWVEVRGFGRQ | -0.892 ± 2.4
91 | TCLRG | inactive
92 | IHDDSKNGK | 0.57 ± 0.16

Row | Substance | amyloid nucleation score
93 | CCSKFHAQN | inactive
94 | CINVFMQEPPPINIRWNCRE | 2.54 ± 0.061
95 | ILISMEPPLFRDTLKNTGNC | inactive
96 | TFWLH | 0.156 ± 0.88
97 | LASGRHQASVHCRVNSMMYS | inactive
98 | VHSGQLVTMGMYKLLLSSLC | inactive
99 | WRVADTTEARMTGWGVWQWY | inactive
100 | TNYNHCKCEIGLGHILARFT | inactive
101 | TLFSSCGLVHLLNCMRWPPG | inactive
102 | QFCVQRFYGVEKKLLTLWGF | 0.088 ± 0.75
103 | SISWRYWKSI | inactive
104 | GRYAEETRYRVFLLIVMTRR | inactive
105 | FTSKKLLCLDKPFNIGDCGY | inactive
106 | LNCVSQMRVDRDANYSCNFF | -0.142 ± 0.78
107 | SCCCDFYTTRKNQRCVHRFR | inactive
108 | QWSGDDTT | 0.368 ± 0.22
109 | MTPMRAAMTLICHMPARRFS | inactive
110 | AVVRDDLVSCPPSAATLQIP | inactive
111 | QVTDEGD | inactive
112 | LRWRHGCIR | inactive
113 | KFYLILVA | inactive
114 | IQLKDKNGDL | inactive
115 | MFVSDKEYRCVTSSVTRVCT | inactive

Row | Substance | amyloid nucleation score
116 | CYEPVAGVFCMRIGLTVVGN | inactive
117 | AYIIN | -0.363 ± 0.82
118 | FWHNSG | inactive
119 | QQRHMLS | 0.294 ± 0.25
120 | SEMELDLSFSPPYRGLPIIV | inactive
121 | LFSWRKYGVNHQLLGVEIQS | inactive
122 | CKYLPLRNYGSCSPGYGKYV | inactive
123 | IYNNSYKFCILLVTWTIEVQ | inactive
124 | ANGLAGDYE | -0.578 ± 1.3
125 | WRACHSRSSVVNWISLPDYS | inactive
126 | LYSLVV | inactive
127 | QTYCYKEMFLITERWIPHSP | -0.155 ± 0.8
128 | CHYNFPVPAVKILRGQRNVA | inactive
129 | VWYAYRLYQTWKITNVLIPW | inactive
130 | LMVVWMLYGNNTCYDALMLC | inactive
131 | GIFVSMTLFILKILFARYVR | inactive
132 | VYMYVALPRSEDHNVF | inactive
133 | RMGWSTGILCRVDTLFITML | inactive
134 | FPIDC | 0.082 ± 0.58
135 | EAVSDLNVGPAVRCGG | inactive
136 | FLAVLNLPGCGMDMRNLINL | inactive
137 | VSGVECSCD | 0.762 ± 0.15
138 | SLCRSLGLGLLAPYRFFTWR | inactive

Row | Substance | amyloid nucleation score
139 | WIGDIIILWMRHSDLCILNC | inactive
140 | FCRIAVMFKSNQELYRMDNG | inactive
141 | ANSYHWTVFVRMFSQDIVNI | inactive
142 | LYDVGYKGQMVDGGTVCCER | -0.257 ± 0.8
143 | CADGSSFRETPSNFTHPNIL | inactive
144 | FTPARRLSRLIVFCFG | inactive
145 | NSNIQKHICVQFVKRWLEPC | inactive
146 | QLIVRSGKDSGVLWNLGQYR | inactive
147 | SLSLWESRCQITFPLVIKVE | -0.017 ± 0.7
148 | MTLRRKLSMTAV | inactive
149 | IKFIERWYQFTYVHCLQVMG | -0.247 ± 0.64
150 | ELSANTSFTNSHMTMTTKLF | inactive
151 | PPRLTS | inactive
152 | CRCMTR | inactive
153 | YIAVMILLCHVKHEMSLLII | 2.71 ± 0.055
154 | GHSSSNMGNVHFKFLC | inactive
155 | GLVWCFCLCSITSYIMVILF | inactive
156 | FLRKFRLTLIYVTRASWLGG | inactive
157 | LLLTYFMMGYYVVWYVFGYW | inactive
158 | YSCVWNGKWCYYSTANDLS | inactive
159 | SAYFAVY | inactive
160 | VKYSLALVSGNRARGYRRCG | inactive
161 | LRPKYTFYCRLD | 0.137 ± 0.28
